Our source for the Kd, koff and kon values is US20260258124A1 (CIMEIO THERAPEUTICS, published 2026).

Broadly, the Kd is the equilibrium constant for the complex coming apart. One may read the koff as the first-order rate constant of dissociation. As usually defined, the kon is the second-order rate constant of association.

Numbering of substitutions follows the chain as printed.

B1: Dom (antibody, V domains shown)
VH: QVQLVQSGAEVRKPGASVKLSCKASGYTFTSYNMHWVRQAPGQGLEWMGVIYSGNGDTSYNQKFKGRVTLTRDTSTSTVYMELSSLRSEDTAVYYCARERDTRFGNWGQGTLVTVSA
VL: EIVLTQSPSSLSASVGDRVTITCRASESVDIYGNSFMHWYQQKPGKAPKLLIYLASNLESGVPSRFSGSGSGTDFTLTISSLQPEDFATYYCQQNNEDPYTFGQGTKLEIK
notes: IgG; also called VH3/VL1; HC3 LC1
B2: HC2 LC5 (antibody, V domains shown)
VH: B1 VH with Q6E, R12K, G44R, L70I, R72V, T74K, T76A, V79A
VL: B1 VL with E1D, V3Q, L4M, S35A, N95A, D98E, Q104G
notes: IgG; also called VH2/VL5
B3: HC5 LC2 (antibody, V domains shown)
VH: EVQLVQSGAEVKKPGESLKISCKGSGYTFTSYNMHWVRQMPGKGLEWMGVIYSGNADTSYNQKFKGQVTISADKSISTAYLQWSSLKASDTAMYYCARERDTRFGNWGQGTLVTVSA
VL: B1 VL with E1D, L4M, S10T, D74E, E85D
notes: IgG; also called VH5/VL2
B4: HC3 LC3 (antibody, V domains shown)
VH: B1 VH
VL: DIVMTQSPSTLSASVGDRVTITCRASESVDIYGSSFMHWYQQKPGQPPKLLIYLASNLESGVPSRFSGSGSGTEFTLTISSLEADDVATYYCQQNNEDPYTFGGGTKLEIK
notes: IgG; also called VH3/VL3
B5: HC2 LC3 (antibody, V domains shown)
VH: B1 VH with Q6E, R12K, G44R, L70I, R72V, T74K, T76A, V79A
VL: B4 VL
notes: IgG; also called VH2/VL3
B6: HC3 LC5 (antibody, V domains shown)
VH: B1 VH
VL: B1 VL with E1D, V3Q, L4M, S35A, N95A, D98E, Q104G
notes: IgG; also called VH3/VL5
B7: HC2 LC2 (antibody, V domains shown)
VH: B1 VH with Q6E, R12K, G44R, L70I, R72V, T74K, T76A, V79A
VL: B1 VL with E1D, L4M, S10T, D74E, E85D
notes: IgG; also called VH2/VL2
B8: HC3 LC2 (antibody, V domains shown)
VH: B1 VH
VL: B1 VL with E1D, L4M, S10T, D74E, E85D
notes: IgG; also called VH3/VL2
B9: HC1 LC5 (antibody, V domains shown)
VH: B1 VH with R12K, L20V, L70M, R72T, V79A, S84R, R87T, E89D
VL: B1 VL with E1D, V3Q, L4M, S35A, N95A, D98E, Q104G
notes: IgG; also called VH1/VL5
B10: Liskamm (antibody, V domains shown)
VH: B3 VH
VL: B1 VL
notes: IgG; also called VH5/VL1; HC5 LC1
B11: Signalkuppe (antibody, V domains shown)
VH: B1 VH with R12K, L20V, L70M, R72T, V79A, S84R, R87T, E89D
VL: B4 VL
notes: IgG; also called VH1/VL3; HC1 LC3
B12: HC5 LC3 (antibody, V domains shown)
VH: B3 VH
VL: B4 VL
notes: IgG; also called VH5/VL3
B13: Zumstein (antibody, V domains shown)
VH: B1 VH with R12K, L20V, L70M, R72T, V79A, S84R, R87T, E89D
VL: B1 VL with E1D, L4M, S10T, D74E, E85D
notes: IgG; also called VH1/VL2; HC1 LC2
B14: HC5 LC5 (antibody, V domains shown)
VH: B3 VH
VL: B1 VL with E1D, V3Q, L4M, S35A, N95A, D98E, Q104G
notes: IgG; also called VH5/VL5
B15: HC2 LC1 (antibody, V domains shown)
VH: B1 VH with Q6E, R12K, G44R, L70I, R72V, T74K, T76A, V79A
VL: B1 VL
notes: IgG; also called VH2/VL1
B16: Jungfrau (antibody, V domains shown)
VH: B1 VH with R12K, L20V, N55S, L70M, R72T, V79A, S84R, R87T, E89D
VL: B1 VL
notes: IgG; also called VH1.2/VL1
B17: Täschhorn (antibody, V domains shown)
VH: B1 VH with R12K, L20V, L70M, R72T, V79A, S84R, R87T, E89D
VL: EIVLTQSPSSLSASVGDRVTITCRASESVDIYGRSFMHWYQQKPGKAPKLLIYLASNLESGVPSRFSGSGSGTDFTLTISSLQPEDFATYYCQQNNEDPYTFGQGTKLEIKR
notes: IgG; also called VH1/VL1.3
B18: Parrot (antibody, V domains shown)
VH: B1 VH with R12K, L20V, L70M, R72T, V79A, S84R, R87T, E89D
VL: B17 VL with R34K
notes: IgG; also called VH1/VL1.5
B19: Grand Combin (antibody, V domains shown)
VH: B1 VH with R12K, L20V, L70M, R72T, V79A, S84R, R87T, E89D
VL: B17 VL with R34N, N95G
notes: IgG; also called VH1/VL1.9
B20: Lagginhorn (antibody, V domains shown)
VH: B1 VH with R12K, L20V, N55S, L70M, R72T, V79A, S84R, R87T, E89D
VL: B17 VL with R34E, D98E
notes: IgG; also called VH1.2/VL1.17
B21: Aletschhorn (antibody, V domains shown)
VH: B1 VH with R12K, L20V, L70M, R72T, V79A, S84R, R87T, E89D
VL: B17 VL with R34N, D98P
notes: IgG; also called VH1/VL1.14
B22: Dent Blanche (antibody, V domains shown)
VH: B1 VH with R12K, L20V, L70M, R72T, V79A, S84R, R87T, E89D
VL: B17 VL with R34F
notes: IgG; also called VH1/VL1.6
B23: Ludwigshöhe (antibody, V domains shown)
VH: B1 VH with R12K, L20V, L70M, R72T, V79A, S84R, R87T, E89D
VL: B17 VL with R34E
notes: IgG; also called VH1/VL1.7
B24: Nadelhorn (antibody, V domains shown)
VH: B1 VH with R12K, L20V, L70M, R72T, V79A, S84R, R87T, E89D
VL: B17 VL with R34Y
notes: IgG; also called VH1/VL1.8
B25: Finsteraarhor (antibody, V domains shown)
VH: B1 VH with R12K, L20V, L70M, R72T, V79A, S84R, R87T, E89D
VL: B17 VL with R34N, N95R
notes: IgG; also called VH1/VL1.10; VH1/LC1.10
B26: Alphubel (antibody, V domains shown)
VH: B1 VH with R12K, L20V, L70M, R72T, V79A, S84R, R87T, E89D
VL: B17 VL with R34N, N96K
notes: IgG; also called VH1/VL1.13
B27: Schreckhorn (antibody, V domains shown)
VH: B1 VH with R12K, L20V, L70M, R72T, V79A, S84R, R87T, E89D
VL: B17 VL with R34Y, D98E
notes: IgG; also called VH1/VL1.16
B28: Breithorn (antibody, V domains shown)
VH: B1 VH with R12K, L20V, L70M, R72T, V79A, S84R, R87T, E89D
VL: B17 VL with R34N, D98E
notes: IgG; also called VH1/VL1.15; VH1/LC1.15
B29: Castor (antibody, V domains shown)
VH: B1 VH with R12K, L20V, L70M, R72T, V79A, S84R, R87T, E89D
VL: B17 VL with R34N, N95E
notes: IgG; also called VH1/VL1.11
B30: Dirruhorn (antibody, V domains shown)
VH: B1 VH with R12K, L20V, L70M, R72T, V79A, S84R, R87T, E89D
VL: B17 VL with R34Y, N96K, D98E
notes: IgG; also called VH1/VL1.18; VH1/VH1.18

One test deals with T1, human recombinant CD117 (c-Kit) from Sino Biological (Catalog No. 11996-H08H) (human, UniProt P10721 26-524).
T1 construct: also called soluble antigen
T1 sequence (P10721 26-524 limits assumed): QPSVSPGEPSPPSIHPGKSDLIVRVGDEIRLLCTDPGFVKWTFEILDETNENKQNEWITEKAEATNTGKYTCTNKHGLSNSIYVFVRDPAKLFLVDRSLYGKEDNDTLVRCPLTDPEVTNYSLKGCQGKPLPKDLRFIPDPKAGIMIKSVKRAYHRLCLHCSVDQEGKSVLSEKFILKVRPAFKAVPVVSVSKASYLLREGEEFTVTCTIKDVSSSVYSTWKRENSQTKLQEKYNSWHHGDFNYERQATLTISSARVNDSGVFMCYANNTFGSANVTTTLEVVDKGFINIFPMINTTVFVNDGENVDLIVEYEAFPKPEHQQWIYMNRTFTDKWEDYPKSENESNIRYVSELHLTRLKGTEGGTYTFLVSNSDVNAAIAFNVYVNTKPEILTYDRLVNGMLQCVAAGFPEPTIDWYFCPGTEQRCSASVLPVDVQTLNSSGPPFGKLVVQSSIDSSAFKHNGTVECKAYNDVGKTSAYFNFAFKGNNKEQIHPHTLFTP
Briefly: BLI Octet, IgG on anti-human Fc sensor, soluble CD117, 1:1 fit. How it is done: IgG antibodies were immobilized on biosensors using suitable capture surfaces and binding of soluble antigen to immobilized antibodies was monitored by BLI (Octet). The resulting sensorgrams were analyzed using the supplied software (Fortebio). As antigen human recombinant CD117 (c-Kit) from Sino Biological was used (Catalog No. 11996-H08H, Lot #LC14SE0812). As a pre-experiment a series of experiments was performed to optimize assay parameters. The following parameters were selected:
(§1) In the main experiment kinetic assays were performed by first capturing IgG using anti-human Fc biosensors. The mAb capture biosensors were then submerged in wells containing different concentrations of antigen (association stage) followed by a dissociation step in running buffer. To allow for double reference correction, IgG-captured sensors were dipped into wells containing only buffer and blank sensors were also dipped into wells containing the antigen. This referencing provided a means of compensating for both the natural dissociation of the capture IgG and non-specific binding of the antigen to the sensor surface. Steps were performed at 25° C. at a constant shaking of 1000 rpm. New sensors were used for each sample. Dissociation rate constants (Kd) were calculated using the ForteBio Data Analysis software. All consumables used were those recommended by ForteBio.
(§2) All samples were diluted in freshly prepared running buffer. Antibody variants were immobilized onto the surface of a series of biosensors using the capture methods described. Antigen was passed over the surface to generate a binding response. Binding data for the IgG:antigen interactions were collected at 25° C. on the biosensors. A dilution series of the antigen was used in the association step, in order to fit results globally and get the best values for ka, kd, and KD. The response data for the binding of antigen to the surface immobilized IgG were fitted to a 1:1 binding model. HC0 LC0 refers to murine SR-1.
For B1, the Kd amounted to 1.96 nM, the koff was 0.000971 s⁻¹ and the kon stood at 495000 M⁻¹ s⁻¹.
On to B2, for which the Kd worked out at 33.8 nM, the koff was found to be 0.0214 s⁻¹ and the kon worked out at 632000 M⁻¹ s⁻¹.
The like results for B3 were, in that order, 3.61 nM, 0.0017 s⁻¹ and 472000 M⁻¹ s⁻¹.
In the case of B4, the dissociation constant (Kd) worked out at 3.28 nM, the koff worked out at 0.00216 s⁻¹ and the kon was found to be 658000 M⁻¹ s⁻¹.
The like results for B5 were, in that order, 8.03 nM, 0.00458 s⁻¹ and 571000 M⁻¹ s⁻¹.
The corresponding values for B6 are 26.2 nM, 0.0187 s⁻¹ and 715000 M⁻¹ s⁻¹.
The like results for B7 were, in that order, 10.8 nM, 0.00483 s⁻¹ and 449000 M⁻¹ s⁻¹.
On to B8, for which the equilibrium dissociation constant (Kd) turned out to be 3.09 nM, the koff was 0.00178 s⁻¹ and the kon was determined as 577000 M⁻¹ s⁻¹.
The corresponding values for B9 are 8.79 nM, 0.00552 s⁻¹ and 628000 M⁻¹ s⁻¹.
As for B10, the Kd was 1.92 nM, the koff was 0.000961 s⁻¹ and the kon was determined as 500000 M⁻¹ s⁻¹.
Take B11: the Kd came out at 1.09 nM, the koff came out at 0.000727 s⁻¹ and the on-rate constant (kon) is 670000 M⁻¹ s⁻¹.
The corresponding values for B12 are 3.67 nM, 0.00216 s⁻¹ and 589000 M⁻¹ s⁻¹.
The corresponding values for B13 are 1.16 nM, 0.000668 s⁻¹ and 576000 M⁻¹ s⁻¹.
The corresponding values for B14 are 29.4 nM, 0.0184 s⁻¹ and 626000 M⁻¹ s⁻¹.
Take B15: the Kd was found to be 5.16 nM, the koff was 0.00206 s⁻¹ and the kon came to 399000 M⁻¹ s⁻¹.

For a further test, the target named is T1, human recombinant CD117 (c-Kit) from …. Briefly: BLI Octet, set-up as in Example 2. How it is done:
as §1, §2
As for B16, the Kd amounted to 1.3 nM.
Same read-out and setting: in the case of B17 it was 3.5 nM; in that of B18, 3.7 nM.
Same read-out and setting: for B19 the value was 1.3 nM.
Still for that read-out and setting: for B20 the value was 0.44 nM; for B21, 1.4 nM; for B22, 1.2 nM.
On to B23, for which the Kd turned out to be 0.2 nM.
Same read-out and setting: in the case of B24 it was 0.2 nM.
The same measure, in the same setting: in the case of B25 it was 4 nM.
The same measure, in the same setting: for B26 the value was 1.4 nM.
For the molecule B27, the Kd worked out at 0.13 nM.
For B28, the Kd worked out at 0.4 nM.
For B29, the Kd came to 2.2 nM.
The same measure, in the same setting: in the case of B30 it was 0.56 nM.
